Bridge positions count the residues as written; N and C are the ends.

What all share (test): cell-based or functional assay
Test [1] has as its target Lek kinase (h) (human), P06239.
The target in test [2] is Ubiquitin carboxyl-terminal hydrolase 10, Q14694.
A further test has as its target T1, COX1(h) (human), P23219.
T1 chain: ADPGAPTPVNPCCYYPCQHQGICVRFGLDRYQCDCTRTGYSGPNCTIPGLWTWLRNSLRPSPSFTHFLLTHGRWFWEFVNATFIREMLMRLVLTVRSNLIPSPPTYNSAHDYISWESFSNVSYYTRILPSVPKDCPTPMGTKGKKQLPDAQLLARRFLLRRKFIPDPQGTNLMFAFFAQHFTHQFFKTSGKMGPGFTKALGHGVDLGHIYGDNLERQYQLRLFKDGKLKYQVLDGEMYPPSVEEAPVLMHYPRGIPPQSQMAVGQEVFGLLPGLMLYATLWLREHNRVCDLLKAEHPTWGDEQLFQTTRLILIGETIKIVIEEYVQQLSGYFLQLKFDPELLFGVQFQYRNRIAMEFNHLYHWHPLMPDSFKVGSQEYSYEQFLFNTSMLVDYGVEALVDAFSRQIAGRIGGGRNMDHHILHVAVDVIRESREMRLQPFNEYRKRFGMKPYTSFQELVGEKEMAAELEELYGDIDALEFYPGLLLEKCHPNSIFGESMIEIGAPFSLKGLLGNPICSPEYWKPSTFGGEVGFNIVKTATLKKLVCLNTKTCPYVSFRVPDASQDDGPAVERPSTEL

The target in a further test is Ataxin3, P54252.
Ataxin3, P54252, sequence (P54252 whole entry): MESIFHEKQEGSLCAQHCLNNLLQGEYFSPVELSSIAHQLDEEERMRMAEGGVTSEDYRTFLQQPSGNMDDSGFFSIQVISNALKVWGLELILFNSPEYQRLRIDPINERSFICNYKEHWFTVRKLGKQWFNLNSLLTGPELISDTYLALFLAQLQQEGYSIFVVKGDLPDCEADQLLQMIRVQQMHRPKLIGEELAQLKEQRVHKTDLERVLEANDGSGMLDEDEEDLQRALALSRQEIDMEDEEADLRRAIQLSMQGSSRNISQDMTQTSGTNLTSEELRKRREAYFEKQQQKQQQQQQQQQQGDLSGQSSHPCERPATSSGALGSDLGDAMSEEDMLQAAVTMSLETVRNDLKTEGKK
For the next test, the target named is Beta secretase, P56817.
Beta secretase, P56817, sequence (P56817 22-457 limits assumed): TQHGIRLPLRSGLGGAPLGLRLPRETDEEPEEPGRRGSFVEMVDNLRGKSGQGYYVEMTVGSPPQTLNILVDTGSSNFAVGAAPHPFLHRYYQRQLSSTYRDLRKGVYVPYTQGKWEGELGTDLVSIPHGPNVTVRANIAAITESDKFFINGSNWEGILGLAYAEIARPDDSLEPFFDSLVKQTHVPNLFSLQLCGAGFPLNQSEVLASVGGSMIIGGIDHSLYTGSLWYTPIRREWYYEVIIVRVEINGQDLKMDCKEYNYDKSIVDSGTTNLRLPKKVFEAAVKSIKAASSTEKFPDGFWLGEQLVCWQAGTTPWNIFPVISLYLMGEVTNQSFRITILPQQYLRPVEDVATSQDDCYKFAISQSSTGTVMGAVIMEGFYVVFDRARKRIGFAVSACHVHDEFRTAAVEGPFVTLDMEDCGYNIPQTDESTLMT
The target of the next test is T2, Caspase-6, P55212.
T2 chain: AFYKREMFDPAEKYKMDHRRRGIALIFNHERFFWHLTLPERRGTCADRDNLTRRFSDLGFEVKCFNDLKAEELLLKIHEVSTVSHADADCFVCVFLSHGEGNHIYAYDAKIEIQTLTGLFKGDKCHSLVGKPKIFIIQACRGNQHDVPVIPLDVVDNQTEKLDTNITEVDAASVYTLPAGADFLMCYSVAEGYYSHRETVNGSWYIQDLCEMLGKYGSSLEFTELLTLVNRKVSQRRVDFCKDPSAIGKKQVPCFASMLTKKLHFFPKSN

Test [3] deals with T3, Ubiquitin carboxyl-terminal hydrolase 2, O75604.
T3 chain: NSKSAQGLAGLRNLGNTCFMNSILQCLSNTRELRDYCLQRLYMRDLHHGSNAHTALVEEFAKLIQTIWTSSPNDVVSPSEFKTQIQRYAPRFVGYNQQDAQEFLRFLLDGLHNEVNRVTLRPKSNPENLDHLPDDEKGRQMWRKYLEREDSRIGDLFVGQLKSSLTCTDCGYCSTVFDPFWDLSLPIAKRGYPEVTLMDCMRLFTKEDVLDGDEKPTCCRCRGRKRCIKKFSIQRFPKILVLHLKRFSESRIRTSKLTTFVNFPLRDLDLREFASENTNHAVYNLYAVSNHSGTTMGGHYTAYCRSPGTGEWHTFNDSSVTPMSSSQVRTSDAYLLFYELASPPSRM

The target of test [4] is Ubiquitin carboxyl-terminal hydrolase 7, Q93009.
Ubiquitin carboxyl-terminal hydrolase 7, Q93009, sequence (Q93009 whole entry): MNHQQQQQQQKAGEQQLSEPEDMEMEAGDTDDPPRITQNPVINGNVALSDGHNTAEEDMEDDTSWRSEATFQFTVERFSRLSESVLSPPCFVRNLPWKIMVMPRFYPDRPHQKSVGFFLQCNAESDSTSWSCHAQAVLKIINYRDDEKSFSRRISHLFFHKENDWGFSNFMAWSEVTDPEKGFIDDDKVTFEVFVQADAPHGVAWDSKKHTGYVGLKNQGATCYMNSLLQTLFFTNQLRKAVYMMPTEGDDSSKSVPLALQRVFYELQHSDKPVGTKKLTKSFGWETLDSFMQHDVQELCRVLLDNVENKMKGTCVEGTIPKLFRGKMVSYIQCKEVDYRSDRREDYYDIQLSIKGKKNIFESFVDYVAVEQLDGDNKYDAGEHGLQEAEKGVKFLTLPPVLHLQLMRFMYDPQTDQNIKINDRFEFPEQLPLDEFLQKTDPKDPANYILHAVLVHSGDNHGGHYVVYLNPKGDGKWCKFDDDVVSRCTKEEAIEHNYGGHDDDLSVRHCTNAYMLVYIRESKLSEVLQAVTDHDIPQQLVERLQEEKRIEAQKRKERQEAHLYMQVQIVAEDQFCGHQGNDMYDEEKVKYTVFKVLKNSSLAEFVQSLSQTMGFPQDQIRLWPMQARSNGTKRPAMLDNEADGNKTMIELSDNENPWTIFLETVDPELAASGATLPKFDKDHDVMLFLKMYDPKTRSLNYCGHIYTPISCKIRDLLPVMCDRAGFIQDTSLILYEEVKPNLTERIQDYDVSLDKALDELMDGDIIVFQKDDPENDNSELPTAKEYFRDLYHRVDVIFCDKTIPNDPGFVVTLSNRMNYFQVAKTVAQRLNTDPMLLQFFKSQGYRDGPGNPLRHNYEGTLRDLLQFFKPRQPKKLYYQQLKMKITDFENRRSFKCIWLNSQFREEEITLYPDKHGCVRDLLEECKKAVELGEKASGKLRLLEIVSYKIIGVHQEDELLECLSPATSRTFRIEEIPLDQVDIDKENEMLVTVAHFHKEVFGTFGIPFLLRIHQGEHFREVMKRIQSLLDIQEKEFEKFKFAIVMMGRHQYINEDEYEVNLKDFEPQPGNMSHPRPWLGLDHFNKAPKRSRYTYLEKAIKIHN
The target in test [5] is T4, Ubiquitin carboxyl-terminal hydrolase 5, P45974.
T4 chain: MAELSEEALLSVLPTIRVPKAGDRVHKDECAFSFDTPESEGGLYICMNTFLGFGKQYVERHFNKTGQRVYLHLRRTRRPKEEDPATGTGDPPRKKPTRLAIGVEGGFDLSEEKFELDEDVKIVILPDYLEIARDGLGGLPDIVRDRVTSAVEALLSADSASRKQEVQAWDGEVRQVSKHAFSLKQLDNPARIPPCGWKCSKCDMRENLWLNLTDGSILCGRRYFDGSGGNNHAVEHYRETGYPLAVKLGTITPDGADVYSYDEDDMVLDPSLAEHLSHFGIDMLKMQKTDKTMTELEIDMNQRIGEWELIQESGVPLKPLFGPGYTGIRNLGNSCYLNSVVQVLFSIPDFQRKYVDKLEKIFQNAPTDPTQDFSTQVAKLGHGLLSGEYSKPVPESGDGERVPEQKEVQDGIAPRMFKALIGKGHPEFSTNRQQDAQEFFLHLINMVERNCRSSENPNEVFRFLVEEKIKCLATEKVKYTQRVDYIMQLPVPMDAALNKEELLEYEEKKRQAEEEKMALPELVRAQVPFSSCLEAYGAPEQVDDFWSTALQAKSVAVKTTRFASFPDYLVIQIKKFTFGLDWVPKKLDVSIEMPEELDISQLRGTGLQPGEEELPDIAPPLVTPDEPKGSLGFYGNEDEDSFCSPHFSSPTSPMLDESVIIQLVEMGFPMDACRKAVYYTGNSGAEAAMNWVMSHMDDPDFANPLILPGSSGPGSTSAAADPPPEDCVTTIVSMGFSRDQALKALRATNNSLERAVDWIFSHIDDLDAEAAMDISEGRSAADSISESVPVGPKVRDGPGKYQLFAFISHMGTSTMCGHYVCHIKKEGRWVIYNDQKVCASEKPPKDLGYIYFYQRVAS

Ubiquitin carboxyl-terminal hydrolase 10, Q14694, sequence (Q14694 whole entry): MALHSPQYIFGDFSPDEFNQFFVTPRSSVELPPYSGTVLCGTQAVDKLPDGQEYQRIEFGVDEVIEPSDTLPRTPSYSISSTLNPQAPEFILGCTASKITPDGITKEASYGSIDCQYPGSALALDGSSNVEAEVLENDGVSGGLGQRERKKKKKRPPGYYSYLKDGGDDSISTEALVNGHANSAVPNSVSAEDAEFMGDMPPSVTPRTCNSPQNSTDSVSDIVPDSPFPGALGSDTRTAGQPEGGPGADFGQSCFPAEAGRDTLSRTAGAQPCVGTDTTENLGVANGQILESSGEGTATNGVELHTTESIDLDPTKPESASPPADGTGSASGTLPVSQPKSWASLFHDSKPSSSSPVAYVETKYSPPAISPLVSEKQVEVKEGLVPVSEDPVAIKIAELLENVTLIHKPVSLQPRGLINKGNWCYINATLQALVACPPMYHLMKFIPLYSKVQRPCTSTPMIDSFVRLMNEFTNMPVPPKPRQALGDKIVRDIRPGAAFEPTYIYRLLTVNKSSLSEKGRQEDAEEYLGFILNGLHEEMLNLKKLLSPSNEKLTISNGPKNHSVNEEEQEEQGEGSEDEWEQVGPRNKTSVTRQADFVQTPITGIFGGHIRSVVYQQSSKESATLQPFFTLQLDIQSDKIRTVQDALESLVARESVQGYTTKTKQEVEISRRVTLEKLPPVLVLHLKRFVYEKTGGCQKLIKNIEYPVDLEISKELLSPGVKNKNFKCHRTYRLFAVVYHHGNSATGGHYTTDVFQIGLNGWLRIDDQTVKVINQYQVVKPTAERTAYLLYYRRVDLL
Lek kinase (h) (human), P06239, sequence (P06239 whole entry): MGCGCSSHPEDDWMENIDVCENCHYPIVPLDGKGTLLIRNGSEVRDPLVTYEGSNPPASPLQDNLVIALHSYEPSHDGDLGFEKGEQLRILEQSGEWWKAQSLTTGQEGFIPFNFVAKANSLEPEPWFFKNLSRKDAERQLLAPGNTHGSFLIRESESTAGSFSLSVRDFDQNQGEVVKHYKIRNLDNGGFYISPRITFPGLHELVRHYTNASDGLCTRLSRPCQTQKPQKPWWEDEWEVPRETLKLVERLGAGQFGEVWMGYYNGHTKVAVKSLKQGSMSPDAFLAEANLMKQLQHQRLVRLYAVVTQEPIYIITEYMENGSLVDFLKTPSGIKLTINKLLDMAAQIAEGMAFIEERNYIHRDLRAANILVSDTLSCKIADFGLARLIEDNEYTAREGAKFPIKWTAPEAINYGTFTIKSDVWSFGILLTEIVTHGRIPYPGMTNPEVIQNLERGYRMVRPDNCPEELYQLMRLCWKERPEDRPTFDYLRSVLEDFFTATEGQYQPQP

B1: Hex-[Cys(tMeBn(DOTA-PP))-Pro-Pro-Thr-Gln-Phe-Cys]-Asp-NH2 (peptide)
peptide: Hex-CPPTQFCD-NH2
modifications: bridge 1-7; not fully specified (bridges); printed as Hex-[Cys(tMeBn(DOTA-PP))-Pro-Pro-Thr-Gln-Phe-Cys]-Asp-NH2
In the case of B1, the % inhibition of control enzyme activity, compound at 10 µM in test [1] was 10%; in the test with COX1(h) (human), P23219, 10%. Besides, the Percentage inhibition (%) at 1 µM in [2] is -2%; in the test with Ataxin3, P54252 it was 1%; in the test with Beta secretase, P56817 it was -8%; in the test with Caspase-6, P55212, 1%; in test [3] it was 3%; in [4], 5%. For the same molecule, the Percentage inhibition (%) at 1 µM in [5] worked out at 3%. Moreover, the Percentage inhibition (%) at 10 µM in test [2] is 5%; with Ataxin3, P54252 it was 10%; in the test with Beta secretase, P56817, -5%; with Caspase-6, P55212, -1%; in test [3], 7%; in test [4] it was 5%. The Percentage inhibition (%) at 10 µM in test [5] came to 46%.

B2: Hex-[Cys(tMeBn(DOTA-AET))-Pro-Pro-Thr-Gln-Phe-Cys]-OH (peptide)
peptide: Hex-CPPTQFC-OH
modifications: bridge 1-7; not fully specified (bridges); printed as Hex-[Cys(tMeBn(DOTA-AET))-Pro-Pro-Thr-Gln-Phe-Cys]-OH
Take B2: the % inhibition of control enzyme activity, compound at 10 µM in [1] is -4%; with COX1(h) (human), P23219 it was 8%. For the same molecule, the Percentage inhibition (%) at 1 µM in test [2] was determined as 1%; with Ataxin3, P54252 it was 2%; in the test with Beta secretase, P56817 it was 1%; with Caspase-6, P55212, 6%; in test [3] it was 0%; in [4] it was 1%. In addition, the Percentage inhibition (%) at 1 µM in test [5] was -4%. Further, the Percentage inhibition (%) at 10 µM in [2] was -1%; with Ataxin3, P54252, -1%; with Beta secretase, P56817 it was 7%; in the test with Caspase-6, P55212, -3%; in [3] it was -1%; in test [4] it was 1%. In test [5], the Percentage inhibition (%) at 10 µM is -2%.
